System: CYT-19
Test: ensemble unwinding (CYT-19 concentration dependence)
Details: kmax 0.86 min-1; functional K1/2 for unwinding; substrate probably -1d,rSA5 = CCCUCdUAAAAA (2'-deoxy at U -1); Ribozyme buffer for complex assembly: 50 mM MOPS pH 7.0, 10 mM MgCl2, 25 C; exact CYT-19/Ded1 assay buffer not in the material

For “L-16/ScaI group I ribozyme with standard 11-bp P1 (ensemble)”, the K half was 5.7 µM.

Reference: article PMC4211656
